Results on 1 molecule are retold here after article doi:10.1101/2024.01.14.575554 (bioRxiv, 2024).

By Kd is commonly meant the free concentration of one partner at which half of the binding sites on the other are occupied at equilibrium, for simple one-to-one binding. Lower therefore signals tighter binding.

The experiment concerns the target T1, Alexa-488 tagged Hsp60α (Sulfolobus acidocaldarius, UniProt Q9V2T5 1-558, Alexa-488 label (site not stated)).
T1 sequence (looked up): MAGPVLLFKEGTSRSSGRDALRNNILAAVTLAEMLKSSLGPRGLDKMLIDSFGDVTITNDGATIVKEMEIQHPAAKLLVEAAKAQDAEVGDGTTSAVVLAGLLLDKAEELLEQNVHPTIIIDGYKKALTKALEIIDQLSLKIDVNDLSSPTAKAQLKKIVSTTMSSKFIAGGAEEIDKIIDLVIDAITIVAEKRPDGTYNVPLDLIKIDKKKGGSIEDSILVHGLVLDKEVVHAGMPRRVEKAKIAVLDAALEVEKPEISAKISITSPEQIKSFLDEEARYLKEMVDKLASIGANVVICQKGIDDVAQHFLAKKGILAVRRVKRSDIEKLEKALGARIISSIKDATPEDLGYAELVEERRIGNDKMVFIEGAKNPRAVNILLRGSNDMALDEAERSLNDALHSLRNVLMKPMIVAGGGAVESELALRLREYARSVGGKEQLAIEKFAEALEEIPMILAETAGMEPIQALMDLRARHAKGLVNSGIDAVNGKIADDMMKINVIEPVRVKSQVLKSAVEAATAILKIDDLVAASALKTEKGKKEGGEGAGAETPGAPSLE
The experiment in a line: FRET or BRET. In general terms: In BRET a luciferase serves as donor, and the signal depends on an acceptor being close.

B1: Alexa-532 tagged Hsp60β (natural protein, Sulfolobus acidocaldarius, UniProt Q9V2T4 1-553, looked up)
chain: MSATATVATTPEGIPVIILKEGSSRTYGKEALRINIAAVKAVEEALKTTYGPRGMDKMLVDSLGDITITNDGATILDKMDLQHPAAKLLVQIAKGQDEETADGTKTAVIFSGELVKKAEELLYKEIHPTIIVSGYKKAEEMAIKTIEEISTKVSVNDTEILRKVALTSLSSKAVAGAREHLADIVVKAITQVAELRGDKWYVDLDNVQIVKKHGGSINDTQIVYGIIVDKEVVHPGMPKRVENAKIALLDASLEVEKPELDAEIRINDPTQMKKFLDEEENILKEKVDKIAQTGANVVICQKGIDEVAQHYLAKKGILAVRRAKKSDLEKLARATGGRVVSNIDELTSQDLGYATLVEERKIGEDKMVFIEGAKNPKAVSILIRGGLERVVDETERALRDALGTVADVVRDGRAIAGGGAVETEIAKRLRKYAPQVGGKEQLAIEAYANALESLVMILIENGGFDPIELLVKLRSAHENETNKWHGINVYTGQIQDMWSLGVIEPAVVKMNAIKAATEASTLILRIDDLISAGKKSEGKTGEKKESEKGKEED
modifications: Alexa-532 label (site not stated)
In turn, B1 had a Kd of 167 ± 1.7 nM.
